Assay results: publication PMC6961540
Like-named read-outs stand apart in the source and are kept apart here.

Tests used:
[1] = target: T1, Ago2 (Flag-tagged, HFT-Ago2) (UniProt Q9UKV8 1-859); experiment: filter binding
[2] = target: T1, Ago2 (Flag-tagged, HFT-Ago2); experiment: competition filter binding
[3] = target: T1, Ago2 (Flag-tagged, HFT-Ago2); experiment: pull-down
[4] = target: T2, Ago2 (HaloTag-Ago2) (UniProt Q9UKV8 1-859); experiment: competition filter binding
[5] = target: T1, Ago2 (Flag-tagged, HFT-Ago2); experiment: pull-down; remark: listed apart in the source
[6] = target: T2, Ago2 (HaloTag-Ago2); experiment: pull-down

T1 sequence (Q9UKV8 whole entry): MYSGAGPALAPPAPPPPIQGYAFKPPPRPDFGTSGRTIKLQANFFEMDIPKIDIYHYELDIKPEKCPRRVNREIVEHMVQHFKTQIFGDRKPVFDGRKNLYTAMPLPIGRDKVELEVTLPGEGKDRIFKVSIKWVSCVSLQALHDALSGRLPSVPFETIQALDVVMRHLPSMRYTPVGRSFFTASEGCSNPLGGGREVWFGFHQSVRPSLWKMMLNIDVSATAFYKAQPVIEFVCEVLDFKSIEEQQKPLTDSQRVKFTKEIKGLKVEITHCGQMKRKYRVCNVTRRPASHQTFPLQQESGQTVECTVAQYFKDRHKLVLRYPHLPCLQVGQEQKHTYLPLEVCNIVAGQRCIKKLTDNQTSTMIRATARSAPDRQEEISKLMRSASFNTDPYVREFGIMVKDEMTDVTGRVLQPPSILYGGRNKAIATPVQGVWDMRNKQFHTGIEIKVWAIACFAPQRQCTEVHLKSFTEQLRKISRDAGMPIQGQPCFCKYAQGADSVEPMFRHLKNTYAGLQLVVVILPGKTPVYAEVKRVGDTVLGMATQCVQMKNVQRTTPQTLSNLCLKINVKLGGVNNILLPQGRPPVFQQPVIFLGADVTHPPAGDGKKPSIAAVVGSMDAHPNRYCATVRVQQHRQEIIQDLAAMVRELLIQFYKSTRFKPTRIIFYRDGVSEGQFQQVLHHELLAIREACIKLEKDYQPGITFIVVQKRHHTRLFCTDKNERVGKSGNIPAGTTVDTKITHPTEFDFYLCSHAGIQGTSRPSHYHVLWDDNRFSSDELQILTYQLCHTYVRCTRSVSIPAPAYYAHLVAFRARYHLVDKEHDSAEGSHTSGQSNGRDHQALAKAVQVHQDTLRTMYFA
T2 sequence (Q9UKV8 whole entry): as above

B1: miR122-v1 guide / target-1 (seed + sup) (mixed)
RNA 1: UGGAGUGUGACAGCGGCGAAAG
RNA 2: CCGCAAAAAAAAAAACACUCCUAA
modifications: 5'-phosphate on guide
Work on B1 yielded a Kd [1] of 5.6 ± 0.5 pM and a binding signal [2] of ~13 fold bound over target-2.

B2: miR122-v1 guide / target-1 with swapped (4 nt) bridge (mixed)
RNA 1: UGGAGUGUGACAGCGGCGAAAG
RNA 2: CCGCAAAAACACUCCUAA
modifications: 5'-phosphate on guide
B2: binds [3].

B3: miR122-v2 guide / target-2 (seed + sup) (mixed)
RNA 1: UGGAGUGUGACACUAUCGAAAG
RNA 2: AUAGAAAAACACUCCUAA
modifications: 5'-phosphate on guide
In the case of B3, the binding signal [4] is reported as ~5 fold bound over target-1.

B4: miR122-v1 guide / target-2 (seed-only) (mixed)
RNA 1: UGGAGUGUGACAGCGGCGAAAG
RNA 2: AUAGAAAAACACUCCUAA
modifications: 5'-phosphate on guide
B4: binds [5].

B5: miR122-v2 guide / target-1 (seed-only) (mixed)
RNA 1: UGGAGUGUGACACUAUCGAAAG
RNA 2: CCGCAAAAAAAAAAACACUCCUAA
modifications: 5'-phosphate on guide
B5: binds [6].
